The test deals with T1, peptide 21 (PfCSP residues 101-115), biotinylated (Plasmodium falciparum 3D7, UniProt Q7K740, also: biotin, position not given here).
T1 construct: Biotinylated probe used in AlphaLISA and BLI; also called Pep21; P21
T1 chain: NPDPNANPNVDPNAN
Nature of the test: BLI; Octet Red384; biotinylated Pep21 immobilised on streptavidin biosensors; Fab serially diluted from 1000 to 62.5 nM; 30°C; PBS + 1% BSA; global fit, 1:1 Langmuir model. The conditions noted are these: both partners purified. A general note: Biolayer interferometry detects binding as a change in optical thickness at a sensor tip.

A word on the Kd: it is the constant that tells how readily two partners part at equilibrium.

No end group written: not given here.

B1: P3-43 Fab (m43.151 variant P100KH) (Fab, V domains shown)
VH: QVHLVQSGAEVKKPGASVKVSCKASGYTFTSYAIHWVRQAPGQRLEWMGWIKGGNGNTRYSQKFQDRVTITRDTSASTAYMELSSLRSEDTAVYYCALLTVITKDDAFDIWGQGTMVTVSS
VL: not shown
notes: as the heavy chain of m5 (m43.151) with the stated change; as the light chain of m5 (m43.151), no change stated; Best m43.151-based variant; source: Fab produced from the antibody
For B1, the Kd was 8.9 ± 0.5 nM.

Values taken from publication doi:10.1101/2022.04.08.487687, “In Silico Improvement of Highly Protective Anti-Malarial Antibodies” (bioRxiv, 2022).
